Measurements published in paper PMC6987092, “Characterization and diversity of the complete set of GH family 3 enzymes from Rhodothermus marinus DSM 4253” (Scientific Reports, 2020).

Columns and labels:
RmXyl3B = biological target: T1, RmXyl3B (Rhodothermus marinus, UniProt D0MHL5); experiment: pNP release at […] nm; format: biochemical; details: 20 mM citrate phosphate pH 5.6, 60 °C
T1 construct: gene Rmar_1081; locus tag is that of the type strain DSM 4252T homolog, gene cloned from DSM 4253

purified protein [1] = substrate: O=[N+]([O-])c1ccc(O[C@@H]2O[C@H](CO)[C@@H](O)[C@H](O)[C@H]2O)cc1; experiment: purified protein; details: 20 mM citrate phosphate pH 5.6, 60 °C
purified protein [2] = substrate: O=[N+]([O-])c1ccc(O[C@@H]2OC[C@@H](O)[C@H](O)[C@H]2O)cc1; experiment: purified protein; format: biochemical, Rhodothermus marinus; details: 20 mM citrate phosphate pH 5.6, 60 °C
purified protein [3] = substrate: CC(=O)N[C@H]1[C@H](Oc2ccc([N+](=O)[O-])cc2)O[C@H](CO)[C@@H](O)[C@@H]1O; experiment: purified protein; format: biochemical, Rhodothermus marinus; details: 20 mM sodium phosphate buffer, 60 °C

T1 sequence (D0MHL5 entry or part of it): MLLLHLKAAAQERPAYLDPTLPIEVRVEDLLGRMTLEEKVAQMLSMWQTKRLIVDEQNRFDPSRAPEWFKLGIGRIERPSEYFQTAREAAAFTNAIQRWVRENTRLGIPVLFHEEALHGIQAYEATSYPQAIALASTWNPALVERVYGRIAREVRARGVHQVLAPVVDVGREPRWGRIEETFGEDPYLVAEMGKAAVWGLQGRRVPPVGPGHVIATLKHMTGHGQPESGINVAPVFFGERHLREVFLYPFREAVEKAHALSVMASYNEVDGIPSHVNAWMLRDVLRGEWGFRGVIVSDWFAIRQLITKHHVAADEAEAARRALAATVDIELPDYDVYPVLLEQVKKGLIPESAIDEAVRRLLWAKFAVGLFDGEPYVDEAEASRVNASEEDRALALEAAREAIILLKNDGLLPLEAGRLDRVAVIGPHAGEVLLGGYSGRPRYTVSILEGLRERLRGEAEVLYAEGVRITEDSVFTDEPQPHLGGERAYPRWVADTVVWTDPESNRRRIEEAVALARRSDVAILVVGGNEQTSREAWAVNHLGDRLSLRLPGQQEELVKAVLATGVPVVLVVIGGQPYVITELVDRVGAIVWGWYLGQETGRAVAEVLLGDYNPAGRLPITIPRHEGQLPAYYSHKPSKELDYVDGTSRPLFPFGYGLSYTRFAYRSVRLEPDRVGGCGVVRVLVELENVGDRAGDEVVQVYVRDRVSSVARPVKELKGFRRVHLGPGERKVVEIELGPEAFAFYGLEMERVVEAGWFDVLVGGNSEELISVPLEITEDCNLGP

O=[N+]([O-])c1ccc(O[C@@H]2OC[C@@H](O)[C@H](O)[C@H]2O)cc1 [pNP-β-Xyl]
Km (RmXyl3B): 300 µM

O=[N+]([O-])c1ccc(O[C@@H]2O[C@H](CO)[C@@H](O)[C@H](O)[C@H]2O)cc1 [pNP-β-Glc]
Km (RmXyl3B): 1600 ± 400 µM

B1: RmXyl3A (Rhodothermus marinus DSM 4252) (protein)
chain: QERPAYLDPTLPIEVRVEDLLGRMTLEEKVAQMLSMRQTKRLIVDEQNRFDPSRAPEWFKLGIGRIERPSEYFQTAREAAAFTNAIQRWVRENTRLGIPVIFHEEALHGLRAAEATSYPQAIALASTWNPALVERVYGRIAREVRARGVHQVLAPVVDVGREPRWGRIEETFGEDPYLVAEMGKAAVWGLQGRRVPPVGPGHVIATLKHMAGHGQPESGINVAPVFFGERHLREVFLYPFREAVEKAHALSVMASYNEIDGIPSHANAWMLRDVLRGEWGFRGVIVSDWHGIPQLITRHHVAENLEEAARLALQATVDVELPDYEAYATLVDQVRRGLIPELAVDEAVRRLLWAKFAVGLFDGEPYVDEAEASRVNASEEDRALALEAAREAIILLKNDGLLPLEAGRLDRVAVIGPHAGEVLLGGYSGRPRYTVSILEGLRERLRGEAEVLYAEGVRITEDSVFTDEPQPHLGGTWARQRNAAHRVVFTPPEANRSRIEEAVALARTSDVVVLVVGGNEQTAREAYAPYHLGDRLSLRLPGQQEELVKAVLATGVPVVLVVIGGRPYVITELVDRVGAIVWGWYLGQETGRAVAEVLLGDYNPAGRLPITIPRHEGQLPAYYSHKPSKELDYVDGTSRPLFPFGYGLSYTRFAYRSVRLEPDRVGGCGVVRVLVELENVGDRAGDEVVQVYVRDRVSSVARPVKELKGFRRVHLGPGERKVVEIELGPEAFAFYGLEMERVVEAGWFDVLVGGNSEELISVPLEITEGCNLGR
notes: locus tag is that of the type strain DSM 4252T homolog, gene cloned from DSM 4253
Km (purified protein [1]): 6500 ± 800 µM | kcat (purified protein [1]): 29.2 s⁻¹ | kcat/Km (purified protein [1]): 4500 M⁻¹ s⁻¹ | Km (purified protein [2]): 400 ± 0 µM | kcat (purified protein [2]): 50.1 ± 1.9 s⁻¹ | kcat/Km (purified protein [2]): 140000 ± 15700 M⁻¹ s⁻¹

B2: RmNag3 (Rhodothermus marinus DSM 4252) (protein)
chain: HRSELDTAPPDRTRPGAWTETQLRTLTLAQQIGQLFAVRARGVFQSVDDPDYRELVRLVEQFQVGGVIFFQGDPYSQAMLANELQRRSRLPLLIAQDTEWGVAMRVRRTTSFPRAMAIGATGNPDYAYAVGYVTAREARALGVHQLYAPVADVNNNPMNPIINVRAFGEDPLQVATMVRAFVRGVQDAGAIATAKHFPGHGDTSIDSHSDLPVLRFDRKRLDTLELVPFRAAIKAGVQSIMTGHLALPRLDPTPNLPASLSRRITHELLREELGFDGLVVTDALEMQGVTKHFGVGEAAVRALEAGADMLLLSEDVEAARSAILQAVAQGRLSRARIEASVRRILLAKERLGLHRERLVDLNAIPYVVGIAPHQALSQTIARASLTLLRNEGNLLPLPDVPATPRQLQVIILSDSDDPATGRFFVQTLREIAPDDRIASRLLDVRSHPDDYRAALEAAARADVVLVPAYLFVRSGTGRIRLPERQRTFLDALIAQGRPVVLIAFGNPYLIMDLQRPPAVYLAAYGGSESTQRAAVQAIFGQAPFTGRLPITIPGHFQRGDGLQLEQVAPRLAYPEEVGMSTQRLYRVDSLLRAAIADSAFPGAAVAIGRGPAIVWLKGYGHFTYTSDQRVTPSSVFDLASLTKVVVTTTAAMQLYEAGKLDLDAPVVRYLPEFGQNGKERVTIRQLLSHTAGLAPFHPFHRMGITTAEAVRQAILSDSLIYEPGTQSRYSDLGMIVLGWVIERITGQPLDRYAAEHIFRPLGMRHTGFRPVGRPDTTVVPTEIDTIFRHRLIQGEVHDETAWILGGVAGHAGLFSTAEDLARFAYMLVNEGRIGGRPFLKPETIRLFTTPVDPERAGTRALGWDTRSREGYSSAGRLFGSRSFGHTGFTGTSIWIDPDQQLFVILLTNRVYPTRENRKHLAVRARLADLAYEALIGPPTLNLNALLP
notes: recombinant in E. coli BL21 C43 (pJOE3075), signal peptide removed, C-terminal His-tag, includes beta-lactamase domain; locus tag is that of the type strain DSM 4252T homolog, gene cloned from DSM 4253
Km (purified protein [3]): 100 ± 0 µM | kcat (purified protein [3]): 102 ± 3 s⁻¹ | kcat/Km (purified protein [3]): 1.31e+06 ± 50300 M⁻¹ s⁻¹

B3: RmBgl3A (Rhodothermus marinus DSM 4252) (protein)
chain: MRTLRLLTLSLLWSGWLLPAIAQVDRAREDSLIEALLARMTLEEKLGQLTLYNGGMAETGPVVREGEPDAIRRGRVGAVMNFFGAEAVCAMQRQAVEESRLGIPLLFALDVIHGFRTIFPVPLAEAATFDPALVEQAARVAAGEASAVGLNWTFAPMVDIARDARWGRIVEGSGEDPYLGAVMAAARVRGFQGRDLRDPTTILATAKHFAAYGAAEAGRDYNTVDVSERTLREVYLPPFEAAVRAGALSIMSAFNEIGGVPATADRWLLTDVLRHEWGFEGLVVSDYTSVWELLFHGIAADSAEVGRKALEAGVDMDMVSGIYVRKLAEEVRAGRLSEAVVDEAVRRVLRVKYRLGLFEDPYRYCRDASREQVLLSPAHRRLAREVARKAIVLLKNEGELLPLADTLQRVAVIGALANDSASVLGPWAAAGRPEDAVTILEGIRAALPGATVRYAPGYAEVPSGSFQEMVAAALSPDTSGFAEAEAVARWAEVVILVLGEHRELSGEAASRASVELPGVQLALAWRLLALGRPVVVVLMNGRPLAIPELAASAPAIVEAWFLGTEMGHAVADVLLGKASPGGRLPVSFPRATGQEPLYYNHKPTGRPPRAEEKYTSKYVDVPWTPLYPFGYGLTYTTFAYDSLRLSRRRLGLDDTLEVVVSVTNTGRRRGEEVVQLYVRDEVASVTRPVKELKGFARVELAPGETKAVQFRLPVRALRFWGLEGGWVVEPGWFTLWVGPSSAEGLQARFEVVSP
notes: recombinant in E. coli BL21 C43 (pJOE3075), C-terminal His-tag, no signal peptide predicted; locus tag is that of the type strain DSM 4252T homolog, gene cloned from DSM 4253
Km (purified protein [1]): 100 ± 0 µM | kcat (purified protein [1]): 79.9 s⁻¹ | kcat/Km (purified protein [1]): 755000 M⁻¹ s⁻¹ | Km (purified protein [2]): 11800 ± 1000 µM | kcat (purified protein [2]): 140.8 ± 0.6 s⁻¹ | kcat/Km (purified protein [2]): 12000 M⁻¹ s⁻¹

B4: RmBgl3B (Rhodothermus marinus DSM 4252) (protein)
chain: QSSRVDSLLAAMTLAEKISLLHGAIDPTGEAGAGYVPGVPRLGIPAMRLTDGPAGIRTRHPATALPAPVALAASFDPELAYRYGHVMGIEGRARRHEVLLSPMVNIVRVPEAGRNFETFSEDPLLSAEMVAAEVRGIQDAGMMATVKHYVANNFENDRMRVNVVVDERTLREIYLPGFEAAIKAGAAAVMCAYNRVNGPYACDNEMLLTDILRDEWGFEGWVMTDWFAGHSLESLVRGLDQEMPGYTIPFSSPDMPLAPAVFADSLLAAVESGRIDEAYVDRAVRRILVQMEQFGLLDGESTPPEINIEAHAAVAREVAEAGAVLLRNENQTLPLSERDLQHLVVIGPTATRPLIGGGGSSRVQPFRTTSTLAALQELAGPQAQIRYVPGIDLDGMPVPSSALRTPDGQPGLLRQGADGTTQVDAQLDFTGERALPPGSQWTWTGTLTAPTAGVYELKLQTAGGVGTLSIDGQPVLRTGMFFSDASLIPTADSLENATYRIELQAGQQLSLTVQISGQVPSLPFLPAGQNPVQVRLAWVTPERRAAFLEEAAEAARAAHAAIVFVYEEGTEGRDRETLALRPDQDALVEAVAAANPRTTVVMNVGAPTLMPWAERVGAILLMWYPGQEGGWATADVLLGRANPAGRLPVTFPRRAEDAPTASPERYPGVDLTARYDEGIFVGYRWYDAQQIEPLFPFGHGLSYTTFAYENLRVEPDGDGFVVRFVVRNTGDRAGSDVPQVYLGPPENPPVPMAVRQLVGFRRVTLAPGEAQEVTVRIDGRALSYWSVEDHAWVKATGRRTLYVGASARDLRLQTEIDVQ
notes: recombinant in E. coli BL21 C43 (pET-21b(+)), signal peptide removed, C-terminal His-tag; locus tag is that of the type strain DSM 4252T homolog, gene cloned from DSM 4253
Km (purified protein [1]): 100 ± 0 µM | kcat (purified protein [1]): 49.5 s⁻¹ | kcat/Km (purified protein [1]): 511000 M⁻¹ s⁻¹ | Km (purified protein [2]): 1200 ± 100 µM | kcat (purified protein [2]): 65.8 ± 0.4 s⁻¹ | kcat/Km (purified protein [2]): 56200 ± 700 M⁻¹ s⁻¹

B5: RmBgl3C (Rhodothermus marinus DSM 4252) (protein)
chain: CQKAEQQPPSTAAFPPLSSYDEQARALLEQMTLEEKIGQMIQAEQAFLQDPYDIQTYHLGSILSGGNSDPADGNSLEAWTEVYDSLQAIALRTRLGIPLLYGIDAVHGHSNVEGAVVFPHHIGLGATRDPDLVERVYRITAIEMRATGIHWNFAPCIAVARDERWGRTYESFSEDPELVATLGAAAVRGLQNGGLNNPLAVLATAKHFAGDGGTAFGTGGPQGALLDQGDVRLDEATFRRIHVRPYIDAIQAGVGSIMVSYSSWNGVKMTGHKYMLTDVLKGELGFEGIVISDYNAIDQVHPDYKTAIEIAINAGIDMAMVPTRYREFFQLLKELVEEGRVPMERIDDAVLRILRVKFAMGLMDGPEHVFADRSLWAKFGSAEHRAVAREAVRKSLVLLKNENQTLPLAKDLGRIHVAGLHADNLGYQAGGWTIDWQGGSGDITEGTTILEAIRKAVAPGTEVTYSEDGSGAAGADVAIAVIGERPYAEFLGDRSDLSLDPDDVAVVRRLKEAGVPVVVILISGRPMIINDVLEMADAFIAAWLPGSEGDGVADVLFGDYAPTGKLPFSWPRSMDQIPINVGDEDYDPLFPFGYGLTY
Km (purified protein [1]): 1600 ± 900 µM | kcat (purified protein [1]): 67.2 s⁻¹ | kcat/Km (purified protein [1]): 42900 M⁻¹ s⁻¹
